According to article PMC6620310, “A ubiquitin-like domain is required for stabilizing the N-terminal ATPase module of human SMCHD1” (Communications Biology, 2019):
Substitutions are numbered along the chain they refer to. Names may count otherwise.

B1: SMCHD1(24–580/E147A), seleno-methionine-labeled (domain or fragment, human, UniProt A6NHR9 24-580, looked up)
chain: GHRTVYLFDRREKESELGDRPLQVGERSDYAGFRACVCQTLGISPEEKFVITTTSRKEITCDNFDETVKDGVTLYLLQSVNQLLLTATKERIDFLPHYDTLVKSGMYEYYASEGQNPLPFALAALIDNSLSATSRNIGVRRIQIKLLFDETQGKPAVAVIDNGRGMTSKQLNNWAVYRLSKFTRQGDFESDHSGYVRPVPVPRSLNSDISYFGVGGKQAVFFVGQSARMISKPADSQDVHELVLSKEDFEKKEKNKEAIYSGYIRNRKPSDSVHITNDDERFLHHLIIEEKEKDSFTAVVITGVQPEHIQYLKNYFHLWTRQLAHIYHYYIHGPKGNEIRTSKEVEPFNNIDIEISMFEKGKVPKIVNLREIQDDMQTLYVNTAADSFEFKAHVEGDGVVEGIIRYHPFLYDRETYPDDPCFPSKLKDEDDEDDCFILEKAARGKRPIFECFWNGRLIPYTSVEDFDWCTPPKKRGLAPIECYNRISGALFTNDKFQVSTNKLTFMDLELKLKDKNTLFTRILNGQEQRMKIDREFALWLKDCHEKYDKQIKFTLFK
modifications: selenomethionine substituted for methionine
notes: Crystallised as a homodimer with one ATP per monomer; two homodimers in the asymmetric unit; also called SMCHD1 E147A; source: E. coli B834(DE3), purified (glutathione resin, TEV cleavage, Superdex200 with Mg2+/ATP, MonoQ)
B2: SMCHD1(24–580) Q345R (domain or fragment, human, UniProt A6NHR9 24-580, looked up)
chain: B1 chain with A124E, Q322R
notes: SMCHD1, human, residues 24-580 with the arhinia variant Q345R; PDB 6MW7 holds the same limits with E147A; Human disease variant (arhinia); also called p.Q345R; source: E. coli Rosetta2(DE3), purified (Glutathione 4B Sepharose, TEV cleavage, Superdex200)
B3: SMCHD1(24–580) T523K (domain or fragment, human, UniProt A6NHR9 24-580, looked up)
chain: B1 chain with A124E, T500K
notes: SMCHD1, human, residues 24-580 with the arhinia variant T523K; PDB 6MW7 holds the same limits with E147A; Human disease variant (arhinia); also called p.T523K; source: E. coli Rosetta2(DE3), purified (Glutathione 4B Sepharose, TEV cleavage, Superdex200)
B4: SMCHD1(24–580) S135C (domain or fragment, human, UniProt A6NHR9 24-580, looked up)
chain: B1 chain with S112C, A124E
notes: SMCHD1, human, residues 24-580 with the arhinia variant S135C; PDB 6MW7 holds the same limits with E147A; Human disease variant (arhinia); also called p.S135C; source: E. coli Rosetta2(DE3), purified (Glutathione 4B Sepharose, TEV cleavage, Superdex200)
B5: SMCHD1(24–580) N139H (domain or fragment, human, UniProt A6NHR9 24-580, looked up)
chain: B1 chain with N116H, A124E
notes: SMCHD1, human, residues 24-580 with the arhinia variant N139H; PDB 6MW7 holds the same limits with E147A; Human disease variant (arhinia); also called p.N139H; source: E. coli Rosetta2(DE3), purified (Glutathione 4B Sepharose, TEV cleavage, Superdex200)
B6: SMCHD1(24–580) E473G (domain or fragment, human, UniProt A6NHR9 24-580, looked up)
chain: B1 chain with A124E, E450G
notes: SMCHD1, human, residues 24-580 with the arhinia variant E473G; PDB 6MW7 holds the same limits with E147A; Human disease variant (arhinia); also called p.E473G; source: E. coli Rosetta2(DE3), purified (Glutathione 4B Sepharose, TEV cleavage, Superdex200)
B7: SMCHD1(24–580) H348R (domain or fragment, human, UniProt A6NHR9 24-580, looked up)
chain: B1 chain with A124E, H325R
notes: SMCHD1, human, residues 24-580 with the arhinia variant H348R; PDB 6MW7 holds the same limits with E147A; Human disease variant (arhinia); also called p.H348R; source: E. coli Rosetta2(DE3), purified (Glutathione 4B Sepharose, TEV cleavage, Superdex200)
B8: SMCHD1(24–580) G137E (domain or fragment, human, UniProt A6NHR9 24-580, looked up)
chain: B1 chain with G114E, A124E
notes: SMCHD1, human, residues 24-580 with the variant G137E (implicated in both arhinia and FSHD2); PDB 6MW7 holds the same limits with E147A; Human disease variant (arhinia and FSHD2); also called p.G137E; source: E. coli Rosetta2(DE3), purified (Glutathione 4B Sepharose, TEV cleavage, Superdex200)
B9: SMCHD1(24–580) E473Q (domain or fragment, human, UniProt A6NHR9 24-580, looked up)
chain: B1 chain with A124E, E450Q
notes: SMCHD1, human, residues 24-580 with the arhinia variant E473Q; PDB 6MW7 holds the same limits with E147A; Human disease variant (arhinia); also called p.E473Q; source: E. coli Rosetta2(DE3), purified (Glutathione 4B Sepharose, TEV cleavage, Superdex200)

Columns and labels:
[1] = target: the molecule itself; experiment: crystal structure; seleno-methionine protein at 8.5 mg/ml with 5 mM Mg2+/ATP, sitting drop; SAD phasing, 2.2 Å
[2] = target: the molecule itself; experiment: cross-linking; glutaraldehyde (final 0.0125%), protein at 2 mg/mL in 20 mM HEPES pH 7.5, 100 mM NaCl, 10% glycerol with 5 mM MgCl2 and 5 mM ATP, 40 min at room temperature, diluted 6.25-fold; SDS-PAGE
[3] = target: the molecule itself; experiment: native gel or EMSA; blue-native PAGE, 4–16% Bis-Tris; 2.2 µg/µl protein incubated with 5 mM MgCl2 and ATP 30 min on ice; 1 mM MgCl2 and 1 mM ATP in the running buffers; monomer and dimer bands quantified

Protein	binding result [3]	other results
B1		binding result [1]: binds
B2		binding result [2]: binds
B3	binds	
B4	binds	
B5	binds	
B6	binds	
B7	binds	
B8	binds	
B9	binds	
